Results on one substance are retold here after patent US6348586.

Some results are limits rather than exact numbers.

For the assay, the target named is human CCR5 transiently expressed on CCC/CD4 cells (human) (UniProt P51681). The assay is described as follows: cell-based or functional assay. As to conditions: scale: fraction of the reverse-construct negative control.
Sequence of UniProt P51681 (P51681 whole entry): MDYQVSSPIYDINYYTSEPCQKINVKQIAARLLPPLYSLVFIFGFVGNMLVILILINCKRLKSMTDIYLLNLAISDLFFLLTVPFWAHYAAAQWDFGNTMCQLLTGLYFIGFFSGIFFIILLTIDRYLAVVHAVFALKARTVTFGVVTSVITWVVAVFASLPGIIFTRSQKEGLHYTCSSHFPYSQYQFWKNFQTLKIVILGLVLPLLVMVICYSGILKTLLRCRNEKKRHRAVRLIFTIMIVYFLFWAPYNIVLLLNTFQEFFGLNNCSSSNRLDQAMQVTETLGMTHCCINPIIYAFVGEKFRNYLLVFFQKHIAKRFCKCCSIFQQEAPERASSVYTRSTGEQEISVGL

Consider “KSHV viral macrophage inflammatory protein I (vMIP-I) encoded by ORF K6 (ligand)”, for which the NSI HIV-1 foci generation (immunostaining for retroviral antigen) in CCC/CD4 cells cotransfected with CCR5 and vMIP-I was less than 0.5.
